Laboratory results published in paper doi:10.1101/2020.03.10.985002.

T1: HY5 (UniProt O24646 1-168)
T1 sequence: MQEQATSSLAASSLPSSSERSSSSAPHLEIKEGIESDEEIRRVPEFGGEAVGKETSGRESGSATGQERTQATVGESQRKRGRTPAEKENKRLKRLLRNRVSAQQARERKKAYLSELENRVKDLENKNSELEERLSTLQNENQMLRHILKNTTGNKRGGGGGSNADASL


Assays:
HY5 [1] = target: T1, HY5; experiment: competition
HY5 [2] = target: T1, HY5; experiment: EMSA

Binder | binding result (HY5 [1]) | binding result (HY5 [2])
G-box cold competitor (GbH5) (dsDNA) DNA 1: GTTCTAGTGTATCAGACACGTGTCGACAAACTGGTGG DNA 2: CCACCAGTTTGTCGACACGTGTCTGATACACTAGAA | binds | 
PAP8 promoter box probe (oP8Box) (dsDNA) DNA 1: GGATACCAAAAATGACGCTCTTAATTATTTCC DNA 2: GGAAATAATTAAGAGCGTCATTTTTGGTATCC |  | binds
